{"source": "patent US20220169740A1", "about": "(KINDRED BIOSCIENCES, published 2022)", "binders": {"B1": {"name": "Equine TrkA ECD v2-variant equine IgG2 Fc (Protein A+, C1q-, CD16-) (Fc fusion)", "chain": "VSFPASVHLQTAVEQHHWCIPFSVDGQPAPTLRWLFNGSVLNETSFIFTEFLESAANETMRHGCLRLNQPTHVNNGNYTLLATNPYGQDSASVMVAFMDNPFEFNPEDPIPVSFSPVDTNSTSRDPPCVLSAEGVIPIPSVPKPQCPPYTHSKFLGGPSVFIFPPNPKDTLMISRTPVVTCVVVNLSDQYPDVQFSWYVDNTEVHSAITKQREAQFNSTYRVVSVLPIQHQDWLSGKEFKCSVTNVGVPQPISRAISRGKGPSRVPQVYVLPPHPDELAKSKVSVTCLVKDFYPPDISVEWQSNRWPELEGKYSTTPAQLDGDGSYFLYSKLSLETSRWQQVESFTCAVMHEALHNHYTKTDISESLGK", "notes": "CHO; also called equine TrkA ECD v2 fusion polypeptide; equine TrkA v2"}}, "key": {"[1]": {"molecular_target": "T1, human NGF (Sino Biological, Inc.; Catalog No. 11050-HNAC) (human, UniProt P01138 122-241, limits assumed, biotinylated in the Octet assay of Example 3 (sites not given); not biotinylated in the TF1 assay)", "T1 sequence (P01138 122-241 limits assumed)": "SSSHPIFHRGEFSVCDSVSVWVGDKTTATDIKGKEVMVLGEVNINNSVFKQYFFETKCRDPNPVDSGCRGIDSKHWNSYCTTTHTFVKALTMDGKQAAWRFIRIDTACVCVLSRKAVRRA", "test": "cell-based or functional assay"}, "[2]": {"molecular_target": "T1, human NGF (Sino Biological, Inc.; …)", "test": "BLI (Octet); biotinylated human NGF on streptavidin tips, TrkA-Fc 25 ug/mL; 1:1 fit", "description": "Binding activity of canine, feline, and equine TrkA ECD v2 and v3 fusion polypeptides prepared in Example 2 (SEQ ID NOs: 16, 17, 19, 20, 22, and 23) to commercially-available human NGF was considered. The binding analysis was performed using a biosensor Octet as follows. Briefly, human NGF (Sino Biological, Inc.; Catalog No. 11050-HNAC) was biotinylated. The free unreacted biotin was removed from biotinylated NGF by extensive dialysis. Biotinylated NGF was captured on streptavidin sensor tips. The association of NGF with TrkA-Fc (25 ug/mL) was monitored for 600 seconds. Dissociation was monitored for 600 seconds. A buffer only blank curve was subtracted to correct for any drift. The data were fit to a 1:1 binding model using ForteBio™ data analysis software to determine the kₒₙ, koff, and the Kd. The buffer for dilutions and all binding steps was: 20 mM phosphate, 150 mM NaCl, pH 7.2.\nFIG. 1 and FIG. 2 are sensorgrams showing that canine, feline, and equine TrkA ECD v2 and v3 fusion polypeptides all bind NGF. […] Irrelevant canine and feline IgG-Fc fusion proteins were used as a negative control."}}, "data": [{"binder": "B1", "values": [{"measurement": "IC50, TF1 cell proliferation assay (CellTiter-Glo luminescence; NGF at 10 ng/ml)", "setting": "[1]", "value": 5.4, "unit": "nM"}, {"measurement": "Kd", "setting": "[2]", "value": "~1", "unit": "nM"}]}]}
